Assay results reported in the Immune Epitope Database (IEDB).

Experiments:
HLA-B*15:17 = assay: IEDB peptide-MHC binding, purified MHC/competitive/fluorescence; filed as Kd, often an IC50 or EC50 that approximates it; ≥ and ≤ were set here for values at or beyond the usual limits of such assays
HLA-A*69:01 = assay: as above
HLA-B*51:01 = assay: as above
HLA-B*39:01 = assay: as above
HLA-B*57:01 = assay: as above
HLA-B*18:01 = assay: as above
HLA-A*26:01 = assay: as above
HLA-A*02:01 = assay: as above
HLA-B*46:01 = assay: as above
HLA-A*02:03 = assay: IEDB peptide-MHC binding, purified MHC/direct/fluorescence; filed as Kd, often an IC50 or EC50 that approximates it; ≥ and ≤ were set here for values at or beyond the usual limits of such assays
HLA-A*02:19 = assay: as above
HLA-A*11:01 = assay: as above
HLA-A*24:03 = assay: as above
HLA-A*23:01 = assay: as above
HLA-A*03:01 = assay: as above
HLA-A*02:11 = assay: as above
HLA-A*68:02 = assay: as above
HLA-A*02:12 = assay: as above
HLA-A*29:02 = assay: as above
HLA-A*02:16 = assay: as above
HLA-B*27:03 = assay: IEDB peptide-MHC binding, purified MHC/competitive/fluorescence; filed as Kd, often an IC50 or EC50 that approximates it; ≥ and ≤ were set here for values at or beyond the usual limits of such assays; conditions: source organism: Giardia lamblia ATCC 50803
[1] = source organism: Rickettsia bellii RML369-C
[2] = source organism: Rickettsia bellii OSU 85-389
[3] = source organism: Giardia lamblia ATCC 50803

AKIALAVYK showed a Kd (HLA-B*15:17; [1]) of no less than 20 µM, a Kd (HLA-A*69:01; [1]) of no less than 20 µM and a Kd (HLA-B*51:01; [1]) of no less than 20 µM. For the same sequence, the Kd (HLA-B*39:01; [1]) was no less than 20 µM, the Kd (HLA-B*57:01; [1]) was no less than 20 µM and the Kd (HLA-B*18:01; [1]) was no less than 20 µM. It also gave a Kd (HLA-A*26:01; [1]) of no less than 20 µM, a Kd (HLA-A*02:01; [1]) of no less than 20 µM and a Kd (HLA-B*46:01; [1]) of no less than 20 µM. The Kd (HLA-A*02:03; [2]) was no less than 20 µM, the Kd (HLA-A*02:19; [2]) was no less than 20 µM and the Kd (HLA-A*11:01; [2]) was 427 nM. For the same sequence, the Kd (HLA-A*24:03; [2]) was no less than 20 µM, the Kd (HLA-A*23:01; [2]) was no less than 20 µM and the Kd (HLA-A*03:01; [2]) was no less than 20 µM. The Kd (HLA-A*02:11; [2]) was no less than 20 µM, the Kd (HLA-A*68:02; [2]) was no less than 20 µM and the Kd (HLA-A*02:12; [2]) was no less than 20 µM. For the same sequence, the Kd (HLA-A*29:02; [2]) was no less than 20 µM and the Kd (HLA-A*02:16; [2]) was no less than 20 µM.

APDGFYPFK gave a Kd (HLA-B*15:17; [3]) of no less than 20 µM, a Kd (HLA-A*69:01; [3]) of no less than 20 µM and a Kd (HLA-B*51:01; [3]) of no less than 20 µM. It also gave a Kd (HLA-B*39:01; [3]) of no less than 20 µM, a Kd (HLA-B*57:01; [3]) of no less than 20 µM and a Kd (HLA-B*18:01; [3]) of no less than 20 µM. It also gave a Kd (HLA-A*26:01; [3]) of no less than 20 µM, a Kd (HLA-A*02:01; [3]) of no less than 20 µM and a Kd (HLA-B*46:01; [3]) of no less than 20 µM. It also gave a Kd (HLA-B*27:03) of no less than 20 µM, a Kd (HLA-A*02:03; [3]) of no less than 20 µM and a Kd (HLA-A*02:19; [3]) of no less than 20 µM. For the same sequence, the Kd (HLA-A*11:01; [3]) was 248 nM, the Kd (HLA-A*24:03; [3]) was no less than 20 µM and the Kd (HLA-A*23:01; [3]) was no less than 20 µM. The Kd (HLA-A*03:01; [3]) was no less than 20 µM, the Kd (HLA-A*02:11; [3]) was no less than 20 µM and the Kd (HLA-A*68:02; [3]) was no less than 20 µM. It also gave a Kd (HLA-A*02:12; [3]) of no less than 20 µM, a Kd (HLA-A*29:02; [3]) of no less than 20 µM and a Kd (HLA-A*02:16; [3]) of no less than 20 µM.
